From the supplement of paper PMC10567573

B1: ZNF263 (parent)
chain: FGGNPRFLSLHRAHLGEEAHKCLE
B2: WSB1 (parent)
chain: FSHDGLHVASLADDKMVRFWRIDE

Variants of: B1
Assay: protein stability index of a GFP-peptide fusion (GPS, HEK-293T) (PSI 1-6); higher = more stable
Conditions: c terminus: a fixed tail appended
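Also: lentivirally expressed fusions sorted by FACS into six bins by GFP to DsRed ratio, PSI derived from sequencing read proportions per bin multiplied by bin number.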

Row | Variant | protein stability index
1 | EGGNPRFLSLHRAHLGEEAHKCLE [F1E] | 3.61
2 | AGGNPRFLSLHRAHLGEEAHKCLE [F1A] | 3.45
3 | DGGNPRFLSLHRAHLGEEAHKCLE [F1D] | 4.17
4 | HGGNPRFLSLHRAHLGEEAHKCLE [F1H] | 3.19
5 | VGGNPRFLSLHRAHLGEEAHKCLE [F1V] | 3.87
6 | NGGNPRFLSLHRAHLGEEAHKCLE [F1N] | 3.94
7 | QGGNPRFLSLHRAHLGEEAHKCLE [F1Q] | 3.38
8 | TGGNPRFLSLHRAHLGEEAHKCLE [F1T] | 3.48
9 | CGGNPRFLSLHRAHLGEEAHKCLE [F1C] | 2.63
10 | GGGNPRFLSLHRAHLGEEAHKCLE [F1G] | 3.98
11 | SGGNPRFLSLHRAHLGEEAHKCLE [F1S] | 3.69
12 | IGGNPRFLSLHRAHLGEEAHKCLE [F1I] | 3.51
13 | RGGNPRFLSLHRAHLGEEAHKCLE [F1R] | 3.69
14 | WGGNPRFLSLHRAHLGEEAHKCLE [F1W] | 1.99
15 | LGGNPRFLSLHRAHLGEEAHKCLE [F1L] | 3.18
16 | MGGNPRFLSLHRAHLGEEAHKCLE [F1M] | 3.81
17 | KGGNPRFLSLHRAHLGEEAHKCLE [F1K] | 2.95
18 | YGGNPRFLSLHRAHLGEEAHKCLE [F1Y] | 1.47
19 | FGGWPRFLSLHRAHLGEEAHKCLE [N4W] | 2.37

Row | Variant | protein stability index
20 | FGGFPRFLSLHRAHLGEEAHKCLE [N4F] | 2.15
21 | FGGHPRFLSLHRAHLGEEAHKCLE [N4H] | 1.97
22 | FGGEPRFLSLHRAHLGEEAHKCLE [N4E] | 2.26
23 | FGGCPRFLSLHRAHLGEEAHKCLE [N4C] | 1.62
24 | FGGPPRFLSLHRAHLGEEAHKCLE [N4P] | 2.61
25 | FGGMPRFLSLHRAHLGEEAHKCLE [N4M] | 1.03
26 | FGGVPRFLSLHRAHLGEEAHKCLE [N4V] | 2.44
27 | FGGGPRFLSLHRAHLGEEAHKCLE [N4G] | 1.56
28 | FGGDPRFLSLHRAHLGEEAHKCLE [N4D] | 2.13
29 | FGGAPRFLSLHRAHLGEEAHKCLE [N4A] | 2.87
30 | FGGQPRFLSLHRAHLGEEAHKCLE [N4Q] | 1.51
31 | FGGIPRFLSLHRAHLGEEAHKCLE [N4I] | 2.24
32 | FGGKPRFLSLHRAHLGEEAHKCLE [N4K] | 2.31
33 | FGGYPRFLSLHRAHLGEEAHKCLE [N4Y] | 1.53
34 | FGGLPRFLSLHRAHLGEEAHKCLE [N4L] | 2.32
35 | FGGTPRFLSLHRAHLGEEAHKCLE [N4T] | 1.66
36 | FGGRPRFLSLHRAHLGEEAHKCLE [N4R] | 2.46
37 | FGGSPRFLSLHRAHLGEEAHKCLE [N4S] | 1.14

Variants of: B2
Assay: as above
Conditions: c terminus: a fixed tail appended

Row | Variant | protein stability index
38 | FSHDGLHVASLADDKMVRFWNIDE [R21N] | 2.15
39 | FSHDGLHVASLADDKMVRFWLIDE [R21L] | 1.59
40 | FSHDGLHVASLADDKMVRFWTIDE [R21T] | 1.17
41 | FSHDGLHVASLADDKMVRFWPIDE [R21P] | 2.35
42 | FSHDGLHVASLADDKMVRFWSIDE [R21S] | 2.12
43 | FSHDGLHVASLADDKMVRFWYIDE [R21Y] | 3.45
44 | FSHDGLHVASLADDKMVRFWWIDE [R21W] | 2.12
45 | FSHDGLHVASLADDKMVRFWQIDE [R21Q] | 1.44
46 | FSHDGLHVASLADDKMVRFWRIDM [E24M] | 2.05
47 | FSHDGLHVASLADDKMVRFWRIDL [E24L] | 2.85
48 | FSHDGLHVASLADDKMVRFWRIDC [E24C] | 4.37
49 | FSHDGLHVASLADDKMVRFWRIDY [E24Y] | 1.97
50 | FSHDGLHVASLADDKMVRFWRIDF [E24F] | 2.68
51 | FSHDGLHVASLADDKMVRFWRIDG [E24G] | 1.23
52 | FSHDGLHVASLADDKMVRFWRIDA [E24A] | 3.01
53 | FSHDGLHVASLADDKMVRFWRIDS [E24S] | 1.61
54 | FSHDGLHVASLADDKMVRFWRIDV [E24V] | 2.12
55 | FSHDGLHVASLADDKMVRFWRIDH [E24H] | 1.16
56 | FSHDGLHVASLADDKMVRFWRIDI [E24I] | 2.28

Row | Variant | protein stability index
57 | FSHDGLHVASLADDKMVRFWRIDT [E24T] | 1.62
58 | FSHDGLHVASLADDKMVRFWRIDD [E24D] | 1.56
59 | FSHDGLHVASLADDKMVRFWRIDP [E24P] | 1.86
60 | FSHDGLHVASLADDKMVRFWRIDW [E24W] | 2.56
61 | FSHDGLHVASLADDKMVRFWRIDN [E24N] | 3
62 | FSHDGLHVASLADDKMVRFWRIDR [E24R] | 1.78
63 | FSHDGLHVASLADDKMVRFWRIDK [E24K] | 1.84
64 | FSHDGLHVASLADDKMVRFWRIKE [D23K] | 2.02
65 | FSHDGLHVASLADDKMVRFWRIHE [D23H] | 1.85
66 | FSHDGLHVASLADDKMVRFWRIFE [D23F] | 2.1
67 | FSHDGLHVASLADDKMVRFWRIWE [D23W] | 2.11
68 | FSHDGLHVASLADDKMVRFWRINE [D23N] | 1.8
69 | FSHDGLHVASLADDKMVRFWRITE [D23T] | 1.33
70 | FSHDGLHVASLADDKMVRFWRIPE [D23P] | 3.58
71 | FSHDGLHVASLADDKMVRFWRIGE [D23G] | 2.25
72 | FSHDGLHVASLADDKMVRFWRIYE [D23Y] | 1.34
73 | FSHDGLHVASLADDKMVRFWRIQE [D23Q] | 1.9
74 | FSHDGLHVASLADDKMVRFWRIEE [D23E] | 1.58
75 | FSHDGLHVASLADDKMVRFWRIRE [D23R] | 1.45

Row | Variant | protein stability index
76 | FSHDGLHVASLADDKMVRFWRIVE [D23V] | 1.81
77 | FSHDGLHVASLADDKMVRFWRIIE [D23I] | 3.06
78 | FSHDGLHVASLADDKMVRFWRICE [D23C] | 1.21
79 | FSHDGLHVASLADDKMVRFWRIME [D23M] | 1.73
80 | FSHDGLHVASLADDKMVRFWRILE [D23L] | 2.35
81 | FSHDGLHVASLADDKMVRFWRNDE [I22N] | 2.09
82 | FSHDGLHVASLADDKMVRFWRSDE [I22S] | 1.66
83 | FSHDGLHVASLADDKMVRFWREDE [I22E] | 2.54
84 | FSHDGLHVASLADDKMVRFWRFDE [I22F] | 1.63
85 | FSHDGLHVASLADDKMVRFWRGDE [I22G] | 3.54
86 | FSHDGLHVASLADDKMVRFWRPDE [I22P] | 2.64
87 | FSHDGLHVASLADDKMVRFWRHDE [I22H] | 2.31
88 | FSHDGLHVASLADDKMVRFWRQDE [I22Q] | 2.45
89 | FSHDGLHVASLADDKMVRFWRKDE [I22K] | 2.66
90 | FSHDGLHVASLADDKMVRFWRMDE [I22M] | 2.16
91 | FSHDGLHVASLADDKMVRFWRYDE [I22Y] | 1.69
92 | FSHDGLHVASLADDKMVRFWRWDE [I22W] | 1.77
93 | FSHDGLHVASLADDKMVRFWRTDE [I22T] | 1.65
94 | FSHDGLHVASLADDKMVRFWRDDE [I22D] | 2.27
